Where two headings read alike, the source gives them in different places. No end group written: not given here.
How the values were obtained:
[1] = target: fluorescein labeled GRE2 sequence dsDNA (F-GRE2); assay: Total fluorescence quenching (energy transfer) of fluorescein labeled DNA; format: binding
Description: Fluorescence Measurements. Steady state fluorescence anisotropy measurements were carried out in 20 mM Tris (pH 7.9), 30 mM NaCl, 20 mM KCl, 1 mM MgCl2, and 5% glycerol. […] DNA samples used were either the non-labeled sequences shown in FIG. 2 or a fluorescein labeled duplex with a sequence matching GRE2 (FIG. 2).
For fluorescein labeled DNA measurements, the excitation wavelength was 491 nm and the emission was recorded at 521 nm with a 1.0 nm slit width. Titrations were performed holding the concentration of fluorescein-labeled DNA constant and increasing the concentration of TO, ZF or TO-ZF as indicated. To correct for the small amount of background fluorescence from TO in these measurements, control experiments were performed in parallel using DNA that was not fluorescein labeled, but was otherwise identical to the labeled DNA fragments. The thiazole orange fluorescence intensity measured in the control experiments was subtracted from the total fluorescence intensity for each data point. Under the excitation conditions of these measurements, the contribution to fluorescence by TO at 521 nm was less than 5% of the maximum fluorescence signal observed in the experiment. Even at the point in the titration where the maximum quenching of fluorescein fluorescence was observed (the point of lowest total fluorescence in the measurement), less than half of the fluorescence was due to TO, and this could accurately be removed by subtraction of the control value. Each point is an average of 60 measurements, and each titration was performed independently three times.
Total fluorescence data were collected in parallel to the anisotropy measurements and were calculated from raw data as the fluorescence intensity in the vertical plane plus two times the fluorescence intensity of the horizontal plane, (TF=Ivv+2Ivh). These values were used to determine the percent of the maximum fluorescence for each point along the titration and fit to equation 2. [formula] […]
Fluorescence changes upon binding of TO, ZF and TO-ZF to GRE containing duplex DNA. Equilibrium binding of the non-labeled zinc finger (ZF), unconjugated thiazole orange (TO) and thiazole orange-zinc finger conjugate (TO-ZF) to fluorescein labeled GRE2 sequence dsDNA was measured by both fluorescence anisotropy and total fluorescence. […] For fluorescein fluorescence, excitation was at 491 nm and emission was detected at 521 nm. […] Changes in the steady-state anisotropy of the fluorescein fluorescence from the labeled GRE sequence containing DNA (F-GRE2) can arise from two sources. […] By comparison, the amino acid zinc finger Xfin-31 was determined to have a dissociation constant of approximately 1 μM, M. S. Lee, et al., FEBS 279:289-294 (1991), whereas, the 66 amino acid zinc finger from GATA-1 has a dissociation constant of 10 nM. […]

[2] = target: poly(dG)-poly(dC) 20-mer; assay: Thiazole orange total fluorescence titration with non-target DNA; details: 50 nM TO-ZF or TO; fit to equation 2; read-out: dissociation constant, non-specific binding
[3] = target: dsDNA; details: cited from earlier work
[4] = system: Hin recombinase consensus sequence (hixL) dsDNA; assay: Total fluorescence reverse titration of conjugate with nonlabeled consensus DNA; format: binding, S. typhimurium
Description: Fluorescence Measurements. Steady state fluorescence anisotropy and total fluorescence measurements were performed as forward and reverse titrations, respectively, as described previously, M. Thompson, et al., supra, 2000. Forward titrations of the tetramethylrhodamine labeled DNA (TMR-DNA) with nonlabeled DNA-binding domains were performed at 10 nM TMR-DNA. Vertical excitation was at 542 nm with detection in the verticle and horizontal planes at 582 nm. Reverse titrations of 1 nM of the appropriate conjugate were titrated with nonlabeled DNA. Excitation and emission detection was at 480 nm and 510 nm for oxazole yellow and 510 nm and 535 nm for thiazole orange samples. Salt dependence studies were performed by titrating an appropriate amount of 1 M NaCl in the same Tris buffer to yield the indicated final salt concentration. Temperature dependence studies were performed by incubating each sample for 30 minutes at the given temperature. The temperature of the sample was held constant by pumping water through the cuvette holder from a temperature equilibrated water bath. Each titration was performed at least 3 times.
Determination of thermodynamic functions. The contribution of the hydrophobic effect and the polyelectrolyte effect to the stability of the conjugate or DNA-binding domain—DNA complex is assessed by analysis of the dependence of the observed association equilibrium constant Kobs for a range of temperatures and salt concentrations as in the following: [formula]
where, [P] eq is the concentration of the conjugate or DNA-binding domain, [D] eq is the concentration of DNA, and [PD] eq is the concentration of bound complex at equilibrium. The analysis is based on the assumption that this is a single-step bimolecular reaction.
Specific binding by the dye labeled peptides (conjugates). The binding affinity of the two dye labeled peptides comprising the Hin recombinase and Tc3 transposase DNA-binding domains conjugated to oxazole yellow and thiazole orange, respectively, were determined. In this case, the total fluorescence intensity can be used to determine the binding affinity by these systems. […] In addition, the bound and free populations of the conjugate, and therefore the dye, present at equilibrium have such an extreme increase in quantum yield (˜1000-5000-fold) that the total fluorescence from the system is a very sensitive and accurate way to monitor binding. Note that each oligonucleotide shown was hybridized to […] forming a dsDNA segment.
In FIG. 9, semi-log plot of the total fluorescence of I nM conjugate is plotted as the log of the concentration of nonlabeled DNA containing each respective consensus sequence. The solid lines represent a fit for the percent of the maximal fluorescence values at 298 K, 0.150 M Na+, (●),313 K, 0.150 M Na+ (t) and 298 K, 0.250 M Na+(▪). The binding constants (Kobs) determined from these curves and the corresponding binding free energies (DG°) are given in Table 1 for the range of salt concentrations (0.15 to 0.25 M Na+) and temperatures (275 to 313 K) investigated. The equilibrium constant decreases 7- and 10-fold for the TOTc3 and YOHin, respectively, when the salt concentration is increased from 0.15 to 0.25 M salt.

[5] = target: T1, TO-ZF (thiazole orange-GR zinc finger conjugate) (UniProt P06536 SEQ:1-28); assay: TO fluorescence titration; same buffer; details: protein: synthetic; tags: thiazole orange on Lys epsilon-amine (first residue coupled to resin); synthetic solid-phase peptide (text states 29 aa, listing 28 aa), Zn-loaded
T1 chain: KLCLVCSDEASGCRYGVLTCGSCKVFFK

[6] = target: T2, YOHin (oxazole yellow-Hin recombinase DNA-binding domain, residues 139-190) (UniProt P03013 SEQ:1-52); assay: 298 K, 0.150 M Na+; 275 K 22e6, 293 K 143e6, 313 K 29e6; 298 K 0.250 M Na+ 14e6; details: protein: synthetic; tags: oxazole yellow covalently attached; synthetic solid-phase peptide
T2 chain: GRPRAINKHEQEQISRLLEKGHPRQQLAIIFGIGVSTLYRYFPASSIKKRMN

[7] = target: T1, TO-ZF (thiazole orange-GR zinc finger …); assay: TO fluorescence titration; single base change in half-site; details: protein: synthetic; tags: thiazole orange on Lys epsilon-amine (first residue coupled to resin); synthetic solid-phase peptide (text states 29 aa, listing 28 aa), Zn-loaded
[8] = target: T1, TO-ZF (thiazole orange-GR zinc finger …); assay: TO fluorescence titration; two base changes vs GRE; details: protein: synthetic; tags: thiazole orange on Lys epsilon-amine (first residue coupled to resin); synthetic solid-phase peptide (text states 29 aa, listing 28 aa), Zn-loaded
[9] = target: T1, TO-ZF (thiazole orange-GR zinc finger …); assay: same as poly(dG)-poly(dC) within experimental error; details: protein: synthetic; tags: thiazole orange on Lys epsilon-amine (first residue coupled to resin); synthetic solid-phase peptide (text states 29 aa, listing 28 aa), Zn-loaded
[10] = target: T3, TOTc3 (thiazole orange-Tc3 transposase DNA-binding domain, residues 202-253) (UniProt P34257 SEQ:1-51); assay: 298 K, 0.150 M Na+; 275 K 22e6, 293 K 66e6, 313 K 22e6; 298 K 0.250 M Na+ 17e6; details: protein: synthetic; tags: thiazole orange covalently attached; synthetic solid-phase peptide (text states 52 aa, listing 51 aa)
T3 chain: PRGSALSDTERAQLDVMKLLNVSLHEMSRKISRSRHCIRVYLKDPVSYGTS

[11] = target: T1, TO-ZF (thiazole orange-GR zinc finger …); assay: TO fluorescence titration; 20 mM Tris pH 7.9, 30 mM NaCl, 20 mM KCl, 1 mM MgCl2, 5% glycerol, ZnCl2; details: protein: synthetic; tags: thiazole orange on Lys epsilon-amine (first residue coupled to resin); synthetic solid-phase peptide (text states 29 aa, listing 28 aa), Zn-loaded
[12] = target: T1, TO-ZF (thiazole orange-GR zinc finger …); assay: TO fluorescence titration; single G to A change in half-site; details: protein: synthetic; tags: thiazole orange on Lys epsilon-amine (first residue coupled to resin); synthetic solid-phase peptide (text states 29 aa, listing 28 aa), Zn-loaded

## CN1C(=Cc2cc[n+](C)c3ccccc23)Sc2ccccc21 [TO, thiazole orange]
[1]; 50 nM F-GRE2, interpretation cautioned (many binding sites), read-out: dissociation constant from quenching curve
  Kd: 2400 nM
[1]; excitation 491 nm, emission 521 nm
  change in total fluorescein fluorescence over the titration: large decreases in steady state fluorescence
[2]
  Kd: 2400 nM
[3]; 5-fold higher salt concentration, Nygren et al., Biopolymers 1998, read-out: dissociation constant for binding to dsDNA
  Kd: ~3 µM
[3]; Haugland 1996, Netzel et al. 1995, read-out: Kd (moderate affinity DNA binding)
  Kd: ~10 µM

## YOHin: oxazole yellow conjugated to the 52 amino acid Hin DNA binding domain, residues 139-190 of Hin recombinase (GRPRAINKHEQEQISRLLEKGHPRQQLAIIFGIGVSTLYRYFPASRIKKRMN; also: oxazole yellow conjugated, site not given here; UniProt P03013 139-190, looked up, fragment)
[4]; 0.15 to 0.25 M salt
  decrease of equilibrium constant when salt is increased from 0.15 to 0.25 M: 10 fold
[4]; 275 K, 0.150 M Na+
  Kobs: 22 (M^−1) × 10^−6
  ΔG°: -9.2 kcal/mol
[4]; 278 K, 0.150 M Na+
  Kobs: 21 (M^−1) × 10^−6
  ΔG°: -9.3 kcal/mol
[4]; 283 K, 0.150 M Na+
  Kobs: 40 (M^−1) × 10^−6
  ΔG°: -9.8 kcal/mol
[4]; 288 K, 0.150 M Na+
  Kobs: 61 (M^−1) × 10^−6
  ΔG°: -10.3 kcal/mol
[4]; 293 K, 0.150 M Na+
  Kobs: 143 (M^−1) × 10^−6
  ΔG°: -10.9 kcal/mol
[4]; 298 K, 0.150 M Na+
  Kobs: 83 (M^−1) × 10^−6
  ΔG°: -10.8 kcal/mol
[4]; 298 K, 0.175 M Na+
  Kobs: 67 (M^−1) × 10^−6
  ΔG°: -10.7 kcal/mol
[4]; 298 K, 0.200 M Na+
  Kobs: 37 (M^−1) × 10^−6
  ΔG°: -10.3 kcal/mol
[4]; 298 K, 0.225 M Na+
  Kobs: 29 (M^−1) × 10^−6
  ΔG°: -10.2 kcal/mol
[4]; 298 K, 0.250 M Na+
  Kobs: 14 (M^−1) × 10^−6
  ΔG°: -9.8 kcal/mol
[4]; 303 K, 0.150 M Na+
  Kobs: 60 (M^−1) × 10^−6
  ΔG°: -10.8 kcal/mol
[4]; 308 K, 0.150 M Na+
  Kobs: 41 (M^−1) × 10^−6
  ΔG°: -10.7 kcal/mol
[4]; 313 K, 0.150 M Na+
  Kobs: 29 (M^−1) × 10^−6
  ΔG°: -10.7 kcal/mol

B1: GRE2 (dsDNA)
DNA 1: TGATACGGCTGACTGTTCTATGA
DNA 2: TCATAGAACAGTCAGCCGTATCA
[5]
  Kd: 25 nM

B2: hixL (Hin consensus) oligonucleotide (dsDNA)
DNA 1: TCTTATCAAAAACACTATCGTCGCACGGCTAC
DNA 2: GTAGCCGTGCGACGATAGTGTTTTTGATAAGA
[6]
  Ka: 8.3e+07 M⁻¹

B3: GRE4 (dsDNA)
DNA 1: TCATACATCTAACTGTCCTATCA
DNA 2: TGATAGGACAGTTAGATGTATGA
[7]
  Kd: 220 nM

B4: ERE (dsDNA)
DNA 1: TCATACATCTAACTGACCTATCA
DNA 2: TGATAGGTCAGTTAGATGTATGA
[8]
  Kd: 810 nM

B5: (dGdC)20 (dsDNA)
DNA 1: GCGCGCGCGCGCGCGCGCGCGCGCGCGCGCGCGCGCGCGC
DNA 2: B5 DNA 1
modifications: [none]
[9]
  Kd: ~1100 nM

B6: Tc3 consensus oligonucleotide (dsDNA)
DNA 1: ATCGGCACGATGCTAGTTCTATAGGACCCCCC
DNA 2: GGGGGGTCCTATAGAACTAGCATCGTGCCGAT
[10]
  Ka: 2.45e+08 M⁻¹

B7: GRE1 (dsDNA)
DNA 1: TCATACCACTAACTGTTCTATCA
DNA 2: TGATAGAACAGTTAGTGGTATGA
[11]
  Kd: 25 nM

B8: GRE3 (dsDNA)
DNA 1: TCATACATCTAACTATTCTATCA
DNA 2: TGATAGAATAGTTAGATGTATGA
[12]
  Kd: 57 nM

From patent US6348317B1, “Fluorescent and DNA cleavage properties of peptide/dye conjugates” (The Arizona Board of Regents, priority 1999, dated 2002)
